Bridge positions count the residues as written; N and C are the ends. Square brackets hold non-standard residues; d marks the D form. Ends that are not written are not given here. * marks the point of attachment. Abu(4-SO3H) = N[C@@H](CCS(=O)(=O)O)C(=O)O; PhLac = O=C(O)[C@@H](O)Cc1ccccc1; Carboxymethyl = O=C(O)C*; NSG‑1 = not defined here; NSG‑2 = not defined here
Assays:
glucagon receptor [1] = biological target: T1, glucagon receptor (UniProt P47871 26-477, limits assumed); test: cell-based or functional assay
T1 sequence (P47871 26-477 limits assumed): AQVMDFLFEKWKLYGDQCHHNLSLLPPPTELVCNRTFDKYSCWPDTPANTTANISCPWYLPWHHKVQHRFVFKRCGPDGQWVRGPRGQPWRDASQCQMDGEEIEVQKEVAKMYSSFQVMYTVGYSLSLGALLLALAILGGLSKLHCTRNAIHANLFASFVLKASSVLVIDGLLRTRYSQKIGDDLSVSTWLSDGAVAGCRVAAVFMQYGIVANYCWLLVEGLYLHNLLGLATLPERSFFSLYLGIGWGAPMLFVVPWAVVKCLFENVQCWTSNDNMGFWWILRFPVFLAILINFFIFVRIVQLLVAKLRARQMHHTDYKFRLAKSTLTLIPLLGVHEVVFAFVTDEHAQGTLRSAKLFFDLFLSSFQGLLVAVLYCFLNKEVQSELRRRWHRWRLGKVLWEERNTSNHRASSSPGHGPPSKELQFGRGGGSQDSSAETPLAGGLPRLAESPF

glucagon receptor [2] = biological target: T1, glucagon receptor; test: assay not named in Table F; taken as receptor binding
glucagon receptor [3] = biological target: T1, glucagon receptor; test: cell-based or functional assay; remark: listed apart in the source
glucagon receptor [4] = biological target: T1, glucagon receptor; test: receptor binding, method not described
glucagon receptor [5] = biological target: T1, glucagon receptor; test: cell-based or functional assay; remark: listed apart in the source
glucagon receptor [6] = biological target: T1, glucagon receptor; test: column IC50(nM) beside the cAMP columns of Table H; taken as receptor binding
glucagon receptor [7] = biological target: T1, glucagon receptor; test: cell-based or functional assay; remark: listed apart in the source
glucagon receptor [8] = biological target: T1, glucagon receptor; test: receptor binding, method not described; remark: listed apart in the source

Binder | IC50 (glucagon receptor [2]) [nM] | IC50(nM) (cAMP, inhibit Glucagon) 0.1 nM or 0.2 nM (glucagon receptor [7]) | IC50 (glucagon receptor [8]) [nM] | further results
AEGTFTSEYSKYLDERRAKDFVQWLMDT (lactam 15-19) [[A2E3, E16K20(Lactam),D28]G(2~29)] | – | – | – | Glucagon IC50 (glucagon receptor [1]): 63 nM
SQGTFTSC(Carboxymethyl)YSKYLDSRRAQDFVQWLMNT-NH2 (N-terminus assumed; SMILES CSCC[C@H](NC(=O)[C@H](CC(C)C)NC(=O)[C@H](Cc1c[nH]c2ccccc12)NC(=O)[C@H](CCC(N)=O)NC(=O)[C@@H](NC(=O)[C@H](Cc1ccccc1)NC(=O)[C@H](CC(=O)O)NC(=O)[C@H](CCC(N)=O)NC(=O)[C@H](C)NC(=O)[C@H](CCCNC(=N)N)NC(=O)[C@H](CCCNC(=N)N)NC(=O)[C@H](CO)NC(=O)[C@H](CC(=O)O)NC(=O)[C@H](CC(C)C)NC(=O)[C@H](Cc1ccc(O)cc1)NC(=O)[C@H](CCCCN)NC(=O)[C@H](CO)NC(=O)[C@H](Cc1ccc(O)cc1)NC(=O)[C@H](CSCC(=O)O)NC(=O)[C@H](CO)NC(=O)[C@@H](NC(=O)[C@H](Cc1ccccc1)NC(=O)[C@@H](NC(=O)CNC(=O)[C@H](CCC(N)=O)NC(=O)[C@@H](N)CO)[C@@H](C)O)[C@@H](C)O)C(C)C)C(=O)N[C@@H](CC(N)=O)C(=O)N[C@H](C(N)=O)[C@@H](C)O, also called peptide no) [[(CSA-1)^9]Glucagon(aa2-29)-NH2] | 12.7 | – | – | –
SQGTFTSCYSKYLDSRRAQDFVQWLMNT (HELM PEPTIDE1{S.Q.G.T.F.T.S.[O=C(O)CCSC[C@H](N[*:1])C(=O)[*:2]].Y.S.K.Y.L.D.S.R.R.A.Q.D.F.V.Q.W.L.M.N.T.[am]}$$$$V2.0; N-terminus assumed; SMILES CSCC[C@H](NC(=O)[C@H](CC(C)C)NC(=O)[C@H](Cc1c[nH]c2ccccc12)NC(=O)[C@H](CCC(N)=O)NC(=O)[C@@H](NC(=O)[C@H](Cc1ccccc1)NC(=O)[C@H](CC(=O)O)NC(=O)[C@H](CCC(N)=O)NC(=O)[C@H](C)NC(=O)[C@H](CCCNC(=N)N)NC(=O)[C@H](CCCNC(=N)N)NC(=O)[C@H](CO)NC(=O)[C@H](CC(=O)O)NC(=O)[C@H](CC(C)C)NC(=O)[C@H](Cc1ccc(O)cc1)NC(=O)[C@H](CCCCN)NC(=O)[C@H](CO)NC(=O)[C@H](Cc1ccc(O)cc1)NC(=O)[C@H](CSCCC(=O)O)NC(=O)[C@H](CO)NC(=O)[C@@H](NC(=O)[C@H](Cc1ccccc1)NC(=O)[C@@H](NC(=O)CNC(=O)[C@H](CCC(N)=O)NC(=O)[C@@H](N)CO)[C@@H](C)O)[C@@H](C)O)C(C)C)C(=O)N[C@@H](CC(N)=O)C(=O)N[C@H](C(N)=O)[C@@H](C)O, also called peptide no) [[(CSA-2)^9]Glucagon(aa2-29)-NH2] | 13.3 | – | – | –
SQGTFTSXYSKYLDSRRAQDFVQWLMNT (homoglutamic acid at position 9; C-terminal amide, also called peptide no) [[hGlu^9]Glucagon(aa2-29)-NH2] | 8.1 | – | – | –
SQGTFTSXYSKYLDSRRAQDFVQFLLNT (HELM PEPTIDE1{S.Q.G.T.F.T.S.[O=C([C@H](CCS(=O)(=O)O)N[*:1])[*:2]].Y.S.K.Y.L.D.S.R.R.A.Q.D.F.V.Q.F.L.L.N.T.[am]}$$$$V2.0; N-terminus assumed; SMILES CC(C)C[C@H](NC(=O)[C@H](Cc1ccc(O)cc1)NC(=O)[C@H](CCCCN)NC(=O)[C@H](CO)NC(=O)[C@H](Cc1ccc(O)cc1)NC(=O)[C@H](CCS(=O)(=O)O)NC(=O)[C@H](CO)NC(=O)[C@@H](NC(=O)[C@H](Cc1ccccc1)NC(=O)[C@@H](NC(=O)CNC(=O)[C@H](CCC(N)=O)NC(=O)[C@@H](N)CO)[C@@H](C)O)[C@@H](C)O)C(=O)N[C@@H](CC(=O)O)C(=O)N[C@@H](CO)C(=O)N[C@@H](CCCNC(=N)N)C(=O)N[C@@H](CCCNC(=N)N)C(=O)N[C@@H](C)C(=O)N[C@@H](CCC(N)=O)C(=O)N[C@@H](CC(=O)O)C(=O)N[C@@H](Cc1ccccc1)C(=O)N[C@H](C(=O)N[C@@H](CCC(N)=O)C(=O)N[C@@H](Cc1ccccc1)C(=O)N[C@@H](CC(C)C)C(=O)N[C@@H](CC(C)C)C(=O)N[C@@H](CC(N)=O)C(=O)N[C@H](C(N)=O)[C@@H](C)O)C(C)C, also called Cmpd) [[desHis^1, hCys^9(SO3^-), Phe^25, Leu^27]Glucagon-NH2] | – | – | – | cAMP Induction EC50 (glucagon receptor [3]): 430 nM; IC50 (glucagon receptor [4]): 13.9 nM
SQGTTSXYSKYLDSRRAQDFVQFLLNT (HELM PEPTIDE1{S.Q.G.T.T.S.[O=C([C@H](CCS(=O)(=O)O)N[*:1])[*:2]].Y.S.K.Y.L.D.S.R.R.A.Q.D.F.V.Q.F.L.L.N.T.[am]}$$$$V2.0; N-terminus assumed; SMILES CC(C)C[C@H](NC(=O)[C@H](Cc1ccc(O)cc1)NC(=O)[C@H](CCCCN)NC(=O)[C@H](CO)NC(=O)[C@H](Cc1ccc(O)cc1)NC(=O)[C@H](CCS(=O)(=O)O)NC(=O)[C@H](CO)NC(=O)[C@@H](NC(=O)[C@@H](NC(=O)CNC(=O)[C@H](CCC(N)=O)NC(=O)[C@@H](N)CO)[C@@H](C)O)[C@@H](C)O)C(=O)N[C@@H](CC(=O)O)C(=O)N[C@@H](CO)C(=O)N[C@@H](CCCNC(=N)N)C(=O)N[C@@H](CCCNC(=N)N)C(=O)N[C@@H](C)C(=O)N[C@@H](CCC(N)=O)C(=O)N[C@@H](CC(=O)O)C(=O)N[C@@H](Cc1ccccc1)C(=O)N[C@H](C(=O)N[C@@H](CCC(N)=O)C(=O)N[C@@H](Cc1ccccc1)C(=O)N[C@@H](CC(C)C)C(=O)N[C@@H](CC(C)C)C(=O)N[C@@H](CC(N)=O)C(=O)N[C@H](C(N)=O)[C@@H](C)O)C(C)C, also called Cmpd) [[desHis^1, desPhe^6, hCys^9(SO3^-), Phe^25, Leu^27]Glucagon-NH2] | – | – | – | cAMP Induction EC50 (glucagon receptor [3]): 3210 nM; cAMP Inhibition IC50 (glucagon receptor [3]): 9220 nM; IC50 (glucagon receptor [4]): 53.3 nM
SQGTFTS[Abu(4-SO3H)]YSKYLDSRRAQDFVQWLMNT-NH2 [[hCys^9(SO3H)]Glucagon(aa2-29)-NH2] | – | – | – | cAMP IC50 (glucagon receptor [5]): 147 nM; IC50 (glucagon receptor [6]): 13.2 nM
XTSDYSKYLDSRRAQDFVQWLMDT (PLA at position 6, N-terminal to residues 7-29; C-terminal amide) [[PLA6, D9, D28]Glucagon(aa6-29)-NH2] | – | 1.32 | 9 | –
XTSDYSKYLDSRRAQDFVQWLMNT (HELM PEPTIDE1{[O=C([C@@H](O)Cc1ccccc1)[*:2]].T.S.D.Y.S.K.Y.L.D.S.R.R.A.Q.D.F.V.Q.W.L.M.N.T}$$$$V2.0; N-terminus assumed; SMILES CSCC[C@H](NC(=O)[C@H](CC(C)C)NC(=O)[C@H](Cc1c[nH]c2ccccc12)NC(=O)[C@H](CCC(N)=O)NC(=O)[C@@H](NC(=O)[C@H](Cc1ccccc1)NC(=O)[C@H](CC(=O)O)NC(=O)[C@H](CCC(N)=O)NC(=O)[C@H](C)NC(=O)[C@H](CCCNC(=N)N)NC(=O)[C@H](CCCNC(=N)N)NC(=O)[C@H](CO)NC(=O)[C@H](CC(=O)O)NC(=O)[C@H](CC(C)C)NC(=O)[C@H](Cc1ccc(O)cc1)NC(=O)[C@H](CCCCN)NC(=O)[C@H](CO)NC(=O)[C@H](Cc1ccc(O)cc1)NC(=O)[C@H](CC(=O)O)NC(=O)[C@H](CO)NC(=O)[C@@H](NC(=O)[C@@H](O)Cc1ccccc1)[C@@H](C)O)C(C)C)C(=O)N[C@@H](CC(N)=O)C(=O)N[C@H](C(=O)O)[C@@H](C)O) [[PLA6, D9]Glucagon(aa6-29)-COOH] | – | 13.2 | 15.5 | –
XTSDYSKYLDSRRAQDFVQWLMNT (HELM PEPTIDE1{[O=C([C@@H](O)Cc1ccccc1)[*:2]].T.S.D.Y.S.K.Y.L.D.S.R.R.A.Q.D.F.V.Q.W.L.M.N.T.[am]}$$$$V2.0; N-terminus assumed; SMILES CSCC[C@H](NC(=O)[C@H](CC(C)C)NC(=O)[C@H](Cc1c[nH]c2ccccc12)NC(=O)[C@H](CCC(N)=O)NC(=O)[C@@H](NC(=O)[C@H](Cc1ccccc1)NC(=O)[C@H](CC(=O)O)NC(=O)[C@H](CCC(N)=O)NC(=O)[C@H](C)NC(=O)[C@H](CCCNC(=N)N)NC(=O)[C@H](CCCNC(=N)N)NC(=O)[C@H](CO)NC(=O)[C@H](CC(=O)O)NC(=O)[C@H](CC(C)C)NC(=O)[C@H](Cc1ccc(O)cc1)NC(=O)[C@H](CCCCN)NC(=O)[C@H](CO)NC(=O)[C@H](Cc1ccc(O)cc1)NC(=O)[C@H](CC(=O)O)NC(=O)[C@H](CO)NC(=O)[C@@H](NC(=O)[C@@H](O)Cc1ccccc1)[C@@H](C)O)C(C)C)C(=O)N[C@@H](CC(N)=O)C(=O)N[C@H](C(N)=O)[C@@H](C)O) [[PLA6, D9]Glucagon(aa6-29)-NH2] | – | 6.9 | 13.8 | –
[PhLac]TS[Abu(4-SO3H)]YSKYLDSRRAQDFVQWLMNT-NH2 [[PLA6, hCys(SO3)9]Glucagon(aa6-29)-NH2] | – | 40.2 | 14.2 | –
SQGTFTS[NSG‑1]YSKYLDSRRAQDFVQWLMNT-NH2 (reading uncertain, also called peptide no) [[(NSG-1)^9]Glucagon(aa2-29)-NH2] | 983 | – | – | –
SQGTFTS[NSG‑2]YSKYLDSRRAQDFVQWLMNT-NH2 (reading uncertain, also called peptide no) [[(NSG-2)^9]Glucagon(aa2-29)-NH2] | 2350 | – | – | –

From patent US20120322725A1 (INDIANA UNIVERSITY RESEARCH AND TECHNOLOGY, published 2012)
